For two molecules, loss of the TFPIα-cofactor activity of protein S in the FXa inhibition assay (S2765 absorbance; 5 nM protein S, 2 nM FV-Short, 0.25 nM TFPIα, 0.3 nM FXa), inhibition of FXa by TFPIα (S2765 absorbance) with phospholipid vesicles and 2 nM FV-Short, protein S titrated and inhibition of FXa by TFPIα (S2765 absorbance) without added FV-Short results are on record in patent publication US20210318338A1.

Common to all, as to assay: cell-based or functional assay
Assay [1] has as its target protein S (purified, free form) (UniProt P07225).
Assay [2] has the same target. The source holds these as a separate data set.
Assay [3] addresses tissue factor pathway inhibitor alpha (TFPIα) (UniProt P10646).
UniProt P10646, sequence (P10646 29-304 limits assumed): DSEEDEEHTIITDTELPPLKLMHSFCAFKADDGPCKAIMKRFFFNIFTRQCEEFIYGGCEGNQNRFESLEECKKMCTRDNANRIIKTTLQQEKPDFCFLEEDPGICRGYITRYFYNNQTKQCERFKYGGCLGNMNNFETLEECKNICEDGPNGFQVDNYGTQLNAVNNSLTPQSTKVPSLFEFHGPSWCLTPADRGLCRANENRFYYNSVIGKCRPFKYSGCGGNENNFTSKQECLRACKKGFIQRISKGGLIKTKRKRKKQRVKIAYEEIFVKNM

Where “and” joins values, the source holds several entries; their conditions need not be identical. Equal entries are not always repeated. Where two headings read alike, the source gives them in different places.

In the case of “C4b-binding protein (C4BP) without bound protein S (from UniProt P04003 49-597; P20851 18-252)”, the values for the loss of the TFPIα-cofactor activity of protein S in the FXa inhibition assay (S2765 absorbance; 5 nM protein S, 2 nM FV-Short, 0.25 nM TFPIα, 0.3 nM FXa) in assay [1] and in assay [2] were 3.13 nM and 6.25 nM, respectively.

B1: protein S (purified, free form) (protein, UniProt P07225 42-676, looked up)
chain: ANSLLEETKQGNLERECIEELCNKEEAREVFENDPETDYFYPKYLVCLRSFQTGLFTAARQSTNAYPDLRSCVNAIPDQCSPLPCNEDGYMSCKDGKASFTCTCKPGWQGEKCEFDINECKDPSNINGGCSQICDNTPGSYHCSCKNGFVMLSNKKDCKDVDECSLKPSICGTAVCKNIPGDFECECPEGYRYNLKSKSCEDIDECSENMCAQLCVNYPGGYTCYCDGKKGFKLAQDQKSCEVVSVCLPLNLDTKYELLYLAEQFAGVVLYLKFRLPEISRFSAEFDFRTYDSEGVILYAESIDHSAWLLIALRGGKIEVQLKNEHTSKITTGGDVINNGLWNMVSVEELEHSISIKIAKEAVMDINKPGPLFKPENGLLETKVYFAGFPRKVESELIKPINPRLDGCIRSWNLMKQGASGIKEIIQEKQNKHCLVTVEKGSYYPGSGIAQFHIDYNNVSSAEGWHVNVTLNIRPSTGTGVMLALVSGNNTVPFAVSLVDSTSEKSQDILLSVENTVIYRIQALSLCSDQQSHLEFRVNRNNLELSTPLKIETISHEDLQRQLAVLDKAMKAKVATYLGGLPDVPFSATPVNAFYNGCMEVNINGVQLDLDEAISKHNDIRAHSCPSVWKKTKNS
modifications: contains the modified amino acid gamma-carboxy glutamic acid (positions not given)
Take B1: in assay [3], the inhibition of FXa by TFPIα (S2765 absorbance) with phospholipid vesicles and 2 nM FV-Short, protein S titrated is 1.25 nM and 5 nM; the inhibition of FXa by TFPIα (S2765 absorbance) without added FV-Short was > 10 nM.
